Reference: IntAct's records for PubMed 22164301

B1: Protein unc-93 homolog B1 (Homo sapiens), Q9H1C4 (parent)
chain: MEAEPPLYPMAGAAGPQGDEDLLGVPDGPEAPLDELVGAYPNYNEEEEERRYYRRKRLGVLKNVLAASAGGMLTYGVYLGLLQMQLILHYDETYREVKYGNMGLPDIDSKMLMGINVTPIAALLYTPVLIRFFGTKWMMFLAVGIYALFVSTNYWERYYTLVPSAVALGMAIVPLWASMGNYITRMAQKYHEYSHYKEQDGQGMKQRPPRGSHAPYLLVFQAIFYSFFHLSFACAQLPMIYFLNHYLYDLNHTLYNVQSCGTNSHGILSGFNKTVLRTLPRSGNLIVVESVLMAVAFLAMLLVLGLCGAAYRPTEEIDLRSVGWGNIFQLPFKHVRDYRLRHLVPFFIYSGFEVLFACTGIALGYGVCSVGLERLAYLLVAYSLGASAASLLGLLGLWLPRPVPLVAGAGVHLLLTFILFFWAPVPRVLQHSWILYVAAALWGVGSALNKTGLSTLLGILYEDKERQDFIFTIYHWWQAVAIFTVYLGSSLHMKAKLAVLLVTLVAAAVSYLRMEQKLRRGVAPRQPRIPRPQHKVRGYRYLEEDNSDESDAEGEHGDGAEEEAPPAGPRPGPEPAGLGRRPCPYEQAQGGDGPEEQ
B2: Protein unc-93 homolog B1 (Homo sapiens), Q9H1C4 (parent)
chain: B1 chain
partner: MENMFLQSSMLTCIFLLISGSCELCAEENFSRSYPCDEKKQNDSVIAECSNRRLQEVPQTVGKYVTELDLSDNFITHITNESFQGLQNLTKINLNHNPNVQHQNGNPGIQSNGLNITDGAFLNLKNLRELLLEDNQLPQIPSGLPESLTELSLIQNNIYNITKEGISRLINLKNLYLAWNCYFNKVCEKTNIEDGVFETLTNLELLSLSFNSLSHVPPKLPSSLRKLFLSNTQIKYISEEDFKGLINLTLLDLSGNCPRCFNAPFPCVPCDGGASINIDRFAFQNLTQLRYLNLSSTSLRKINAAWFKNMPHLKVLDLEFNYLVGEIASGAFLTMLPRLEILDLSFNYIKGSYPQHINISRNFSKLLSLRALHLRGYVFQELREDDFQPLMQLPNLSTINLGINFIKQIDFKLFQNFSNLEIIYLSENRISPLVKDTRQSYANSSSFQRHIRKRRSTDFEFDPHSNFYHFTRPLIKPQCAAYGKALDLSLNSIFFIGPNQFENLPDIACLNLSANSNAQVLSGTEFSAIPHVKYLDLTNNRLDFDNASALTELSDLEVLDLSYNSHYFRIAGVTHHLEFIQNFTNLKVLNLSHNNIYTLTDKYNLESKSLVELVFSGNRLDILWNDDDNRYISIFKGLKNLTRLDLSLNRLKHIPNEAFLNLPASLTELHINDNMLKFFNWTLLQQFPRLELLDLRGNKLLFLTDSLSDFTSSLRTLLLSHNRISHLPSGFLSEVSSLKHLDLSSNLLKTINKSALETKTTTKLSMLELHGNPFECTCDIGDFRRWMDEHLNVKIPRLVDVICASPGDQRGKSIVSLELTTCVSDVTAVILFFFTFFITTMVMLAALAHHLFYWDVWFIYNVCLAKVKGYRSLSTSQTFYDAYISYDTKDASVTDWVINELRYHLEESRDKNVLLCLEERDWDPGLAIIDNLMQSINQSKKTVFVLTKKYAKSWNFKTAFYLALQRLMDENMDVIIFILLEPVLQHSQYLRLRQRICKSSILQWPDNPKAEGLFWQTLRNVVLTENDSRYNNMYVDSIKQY

Variants of: B1
Conditions: with tlr3_human TLR3, O15455

effect of a mutation on the interaction	Variant
disrupting interaction strength	H412R

Variants of: B2
Conditions: with tlr8_human TLR8, Q9NR97

effect of a mutation on the interaction	Variant
disrupting interaction strength	H412R
